The values below come from US20250325630A1, “HOMODIMER FUSION PROTEINS FOR TREATING ATOPIC DERMATITIS” (Intervet Inc., priority 2021, published 2025).

The target in test [1] is T1, canine IL-4 (cIL-4) (Canis lupus familiaris, UniProt O77762).
T1 sequence (O77762 25-132): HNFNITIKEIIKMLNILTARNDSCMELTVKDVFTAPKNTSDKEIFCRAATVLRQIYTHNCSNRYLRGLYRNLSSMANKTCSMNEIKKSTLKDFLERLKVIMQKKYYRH
Briefly: Binding kinetics of cFc fusion proteins to canine IL-4 (OCTET HTX). On the procedure:
(§1) The binding constants for the cFc fusion proteins provided in Tables 3 and 4 below, were determined using OCTET® HTX. All kinetics measurements were performed by OCTET® HTX using SA® biosensors and DATA ACQUISITION® 12.0 software. 10 μg/mL of biotin-labeled antigen, either canine IL-4 (cIL-4) or canine IL-13 (cIL-13) were loaded onto the SAR biosensors for 120 seconds. Next, the biosensors were placed into 1×pH 7.0 TBS/Casein buffer for 60 seconds for the blocking phase. For the association phase, antigen loaded biosensors were placed into 2-fold serial dilutions from 1 μM down to 15.6 nM of the wild-type, the bispecific, or the FcRn-mutant receptor Fc-fusions that recognized the cIL-4 or cIL-13 antigen in 1×pH 7.0 TBS/Casein buffer for 30 seconds. The last well was buffer alone and that sensor was used for reference sensor subtraction. Finally, the biosensors were placed into 1×pH 7.0 TBS/Casein buffer for 120 seconds for the dissociation phase. The results were then analyzed using Data Analysis 12.0 software and the curves were fitted using a 1:1 binding model.

The target of test [2] is T2, canine IL-13 (cIL-13) (Canis lupus familiaris, UniProt Q9N0W9).
T2 sequence (Q9N0W9 19-131): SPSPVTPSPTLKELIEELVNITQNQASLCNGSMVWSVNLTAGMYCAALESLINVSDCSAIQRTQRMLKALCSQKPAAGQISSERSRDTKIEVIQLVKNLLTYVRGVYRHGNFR
Briefly: Binding kinetics of cFc fusion proteins to canine IL-13 (OCTET HTX). To be noted: Table 4, cIL-13; for ka: association rate constant; for kdis: dissociation rate constant. On the procedure: as §1

Test [3] has as its system cIL-13 mediated STAT6 phosphorylation. Briefly: Inhibition of cIL-13 mediated STAT6 phosphorylation in DH82 cells (AlphaLISA p-STAT6). To be noted: for concentration inhibiting 50% of the cIL-13 mediated STAT6 phosphorylation (in words): DH82 cells. It is filed as cell-based, canine. As to the method:
The ability of the cFc fusion proteins to block the signaling mediated by IL-4 and IL-13, as measured by inhibition of STAT-6 phosphorylation in DH82 cells, were determined as follows:
• 1. Actively growing DH82 cells: Merck Animal Health Lot: 628-011, 24Oct14 • 2. HBSS, 1×: Corning, Catalog 21-022-CM • 3. AlphaLISA p-STAT6 (Tyr641) Assay Kit: Perkin Elmer, Catalog ALSU-PST6-A10K • 4. Recombinant canine IL-4: R&D Systems, Catalog: 752-CL/CF • 5a. cFc fusion protein samples for IL-4 studies • (i) cIL4Rα-cFc • (ii) cIL4Rα-IL13Rα1 ZW1-cFc • (iii) cIL4Rα-IL13Rα2 ZW1-cFc • 5b. cFc fusion protein samples for IL-13 studies: • (i) CIL13Rα1-cFc • (ii) cIL13Rα2-cFc • (iii) cIL4R-IL13Rα1 ZW1-cFc • (iv) cIL4R-IL13Rα2 ZW1-cFc • 6. Perkin Elmer® Envision
• 1. Tissue culture plates were seeded with […] DH82 cells per well (40 μL with the density of 2.5×10^5 cells/mL) and incubated at 37° C. for 2 hours. • 2. The cFc fusion proteins were pre-diluted to 2000 nM (500 nM final concentration in the well) and then 3-fold serially diluted in Hank's Balanced Salt Solution (HBSS). The proteins were added by transferring 20 μL/well to the respective locations on the tissue culture plates containing DH82 cells. • 3. (a) Canine IL-4 was diluted to 10 ng/ml in HBSS (2.5 ng/ml in the well) and 20 μL was added to each well of the plates. The plates were incubated for 15 min at 37° C.; or alternatively • (b) Canine IL-13 was diluted to 20 ng/ml in HBSS (5 ng/ml in the well) and 20 μL was added to each well of the plates. The plates were incubated for 15 min at 37° C. • 4. The plates were removed from the incubator and 20 μL of 4× Lysis buffer from the AlphaLISA® p-STAT-6 Assay Kit was added to each well of the plate. The plate was agitated on a plate shaker with 350 rpm for 10 minutes at room temperature. • 5. The Acceptor Mix was prepared from the AlphaLISA® p-STAT6 Assay Kit and 15 μL per well was added to 30 μL of the cell lysate in 96-well ½ Area Plates. The plates were sealed, agitated for 2 minutes at 350 rpm, and then incubated for 1 hour at room temperature. • 6. The Donor Mix was prepared from the AlphaLISA® p-STAT6 Assay kit under subdued laboratory lighting and 15 μL per well was added to each plate. The plates were sealed, covered with foil, agitated for 2 minutes at 350 rpm, and then incubated for 1 hour at room temperature. • 7. The plates were read using the AlphaScreen settings on the Perkin Elmer® En Vison.

B1: cIL4Rα-IL13Rα1_ZW1-cFc: bispecific heterodimer of cIL-4Rα-cIgGB-Fc-ZW-A (SEQ ID NO: 18) and cIL-13Rα1-cIgGB-Fc-ZW-B (SEQ ID NO: 19) (protein)
chain 1: VKVLHEPSCFSDYISTSVCQWKMDHPTNCSAELRLSYQLDFMGSENHTCVPENREDSVCVCSMPIDDAVEADVYQLDLWAGQQLLWSGSFQPSKHVKPRTPGNLTVHPNISHTWLLMWTNPYPTENHLHSELTYMVNVSNDNDPEDFKVYNVTYMGPTLRLAASTLKSGASYSARVRAWAQTYNSTWSDWSPSTTWLNYYEPWEQHLPPKRENGRVPRPPDCPKCPAPEMLGGPSVFIFPPKPKDTLLIARTPEVTCVVVDLDPEDPEVQISWFVDGKQMQTAKTQPREEQFNGTYRVVSVLPIGHQDWLKGKQFTCKVNNKALPSPIERTISKARGQAHQPSVYVYPPSREELSKNTVSLTCLIKDFFPPDIDVEWQSNGQQEPESKYRTTPPQLDEDGSYALVSKLSVDKSRWQRGDTFICAVMHEALHNHYTQESLSHSPGK
chain 2: GGVAAPTETQPPVTNLSVSVENLCTVIWTWDPPEGASPNCTLRYFSHFDNKQDKKIAPETHRSKEVPLNERICLQVGSQCSTNESDNPSILVEKCTPPPEGDPESAVTELQCVWHNLSYMKCTWLPGRNTSPDTNYTLYYWHSSLGKILQCEDIYREGQHIGCSFALTNLKDSSFEQHSVQIVVKDNAGKIRPSFNIVPLTSHVKPDPPHIKRLFFQNGNLYVQWKNPQNFYSRCLSYQVEVNNSQTETNDIFYVEEAKCQNSEFEGNLEGTICFMVPGVLPDTLNTVRIRVRTNKLCYEDDKLWSNWSQAMSIGENTDPTPKRENGRVPRPPDCPKCPAPEMLGGPSVFIFPPKPKDTLLIARTPEVTCVVVDLDPEDPEVQISWFVDGKQMQTAKTQPREEQFNGTYRVVSVLPIGHQDWLKGKQFTCKVNNKALPSPIERTISKARGQAHQPSVYVLPPSREELSKNTVSLLCLIKDFFPPDIDVEWQSNGQQEPESKYLTWPPQLDEDGSYFLYSKLSVDKSRWQRGDTFICAVMHEALHNHYTQESLSHSPGK
modifications: heterodimer
Regarding B1, in test [1], the “loss in affinity for cIL-4 (KD times higher) relative to unmodified cIL-4Rα-cFc homodimer” value is given as “about 10,000 fold”. Moreover, the ka in test [1] (Table 3, association rate constant, cIL-4, ND = Binding Not Detected) is 237000 M⁻¹ s⁻¹. Moreover, in test [1] (Table 3, dissociation rate constant, cIL-4, ND = Binding Not Detected), the kdis worked out at 0.00234 s⁻¹. Moreover, in test [2], the ka stood at 94400 M⁻¹ s⁻¹ and the kdis came out at 3.91e-05 s⁻¹. Besides, in test [3], the “IC50 for cIL-13 mediated STAT6 phosphorylation, fold higher than for cIL-13Rα2-cFc” value was “about 20 fold” and the “concentration inhibiting 50% of the cIL-13 mediated STAT6 phosphorylation (in words)” value is “well above nanomolar concentrations”.

B2: cIL-13Rα1-cFc: homodimer of canine IL-13Rα1 ECD, IgGB hinge region and IgGB cFc fusion protein, SEQ ID NO: 6 (protein)
chain: GGVAAPTETQPPVTNLSVSVENLCTVIWTWDPPEGASPNCTLRYFSHFDNKQDKKIAPETHRSKEVPLNERICLQVGSQCSTNESDNPSILVEKCTPPPEGDPESAVTELQCVWHNLSYMKCTWLPGRNTSPDTNYTLYYWHSSLGKILQCEDIYREGQHIGCSFALTNLKDSSFEQHSVQIVVKDNAGKIRPSFNIVPLTSHVKPDPPHIKRLFFQNGNLYVQWKNPQNFYSRCLSYQVEVNNSQTETNDIFYVEEAKCQNSEFEGNLEGTICFMVPGVLPDTLNTVRIRVRTNKLCYEDDKLWSNWSQAMSIGENTDPTPKRENGRVPRPPDCPKCPAPEMLGGPSVFIFPPKPKDTLLIARTPEVTCVVVDLDPEDPEVQISWFVDGKQMQTAKTQPREEQFNGTYRVVSVLPIGHQDWLKGKQFTCKVNNKALPSPIERTISKARGQAHQPSVYVLPPSREELSKNTVSLTCLIKDFFPPDIDVEWQSNGQQEPESKYRTTPPQLDEDGSYFLYSKLSVDKSRWQRGDTFICAVMHEALHNHYTQESLSHSPGK
modifications: homodimer
On to B2, for which, in test [2], the ka was determined as 58000 M⁻¹ s⁻¹ and the kdis amounted to 0.000312 s⁻¹. For the same molecule, in test [3], the “concentration inhibiting 50% of the cIL-13 mediated STAT6 phosphorylation (in words)” value is “well above nanomolar concentrations”.

B3: cIL4Rα-IL13Rα2_ZW1-cFc: bispecific heterodimer of cIL-4Rα-cIgGB-Fc-ZW-A (SEQ ID NO: 18) and cIL-13Rα2-cIgGB-Fc-ZW-B (SEQ ID NO: 20) (protein)
chain 1: VKVLHEPSCFSDYISTSVCQWKMDHPTNCSAELRLSYQLDFMGSENHTCVPENREDSVCVCSMPIDDAVEADVYQLDLWAGQQLLWSGSFQPSKHVKPRTPGNLTVHPNISHTWLLMWTNPYPTENHLHSELTYMVNVSNDNDPEDFKVYNVTYMGPTLRLAASTLKSGASYSARVRAWAQTYNSTWSDWSPSTTWLNYYEPWEQHLPPKRENGRVPRPPDCPKCPAPEMLGGPSVFIFPPKPKDTLLIARTPEVTCVVVDLDPEDPEVQISWFVDGKQMQTAKTQPREEQFNGTYRVVSVLPIGHQDWLKGKQFTCKVNNKALPSPIERTISKARGQAHQPSVYVYPPSREELSKNTVSLTCLIKDFFPPDIDVEWQSNGQQEPESKYRTTPPQLDEDGSYALVSKLSVDKSRWQRGDTFICAVMHEALHNHYTQESLSHSPGK
chain 2: SMLSNAEIKVNPPQDFEIVDPGYLGYLSLQWQPPLFPDNFKECTIEYELKYRNIDSENWKTIITKNLHYKDGFDLNKGIEAKINTLLPAQCTNGSEVRSSWAETTYWTSPQGNRETKIQDMDCVYYNWQYLVCSWKPGMGVHFDTNYQLFYWYEGLDHSAECTDYIKVNGKNMGCRFPYLESSDYKDFYICVNGSSESQPIRPSYFIFQLQNIVKPMPPDYLSLTVKNSEEINLKWNMPKGPIPAKCFIYEIEFTEDGTTWVTTTVENEIQITRTSNESQKLCFLVRSKVNIYCSDDGIWSEWSDEQCWKGDIWKETPKRENGRVPRPPDCPKCPAPEMLGGPSVFIFPPKPKDTLLIARTPEVTCVVVDLDPEDPEVQISWFVDGKQMQTAKTQPREEQFNGTYRVVSVLPIGHQDWLKGKQFTCKVNNKALPSPIERTISKARGQAHQPSVYVLPPSREELSKNTVSLLCLIKDFFPPDIDVEWQSNGQQEPESKYLTWPPQLDEDGSYFLYSKLSVDKSRWQRGDTFICAVMHEALHNHYTQESLSHSPGK
modifications: heterodimer
Turning to B3, the “binding constant (KD) with cIL-4” value in test [1] (approximate values) is recorded as “undetectable”. For the same molecule, in test [2], the ka is 32600 M⁻¹ s⁻¹ and the kdis was found to be 0.000135 s⁻¹. In test [3], the “IC50 for cIL-13 mediated STAT6 phosphorylation, fold higher than for cIL-13Rα2-cFc” value was “about 200 fold” and the “concentration inhibiting 50% of the cIL-13 mediated STAT6 phosphorylation (in words)” value is listed as “well above nanomolar concentrations”.
